Data reported in patent US20260116991A1 (HAINAN SIMCERE ZAIMING PHARMACEUTICAL, published 2026).
Substitutions are numbered along the chain they refer to. One block for each binder: values may come before it.

Columns and labels:
polypeptide GC3pep [1] = molecular target: T1, polypeptide GC3pep (human); assay: ELISA, GC3pep coated, antibody 1 nM;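 also: bound antibody detected with an HRP-conjugated secondary antibody and TMB substrate, reaction stopped with HCl, after 2 h binding at 37 °C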
T1 construct: also called membrane proximal polypeptide GC3pep
T1 peptide: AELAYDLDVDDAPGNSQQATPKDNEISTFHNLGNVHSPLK

polypeptide GC3pep [2] = molecular target: T1, polypeptide GC3pep; assay: ELISA, GC3pep coated, antibody 10 nM;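 also: antibody bound to the coated peptide for 2 h at 37 °C, detected through an HRP-conjugated secondary antibody with TMB colour development stopped by acid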
polypeptide GC3pep [3] = molecular target: T1, polypeptide GC3pep; assay: ELISA, GC3pep coated, antibody 0.1 nM;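 also: antibody allowed to bind the coated plate 2 h at 37 °C, then detected via HRP-conjugated secondary antibody and TMB development for 10 min, stopped with HCl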
Method: (§1) The plate was sealed with a plastic film and incubated at 4° C. overnight, washed twice with PBS the next day, and a blocking solution [PBS+2% (w/w) BSA] was added for blocking at room temperature for 2 h. […] After incubation at 37° C. for 2 h, the plate was washed 3 times with PBS. A horseradish peroxidase (HRP)-labeled secondary antibody (purchased from Merck, Cat. No. AP113P) was added for incubation at 37° C. for 1 h, and the plate was washed 5 times with PBS. A TMB substrate was added at 50 μL/well for incubation at room temperature for 10 min, then a stop solution (1.0M HCl) was added at 50 μL/well.

polypeptide GC3pep [4] = molecular target: T1, polypeptide GC3pep; assay: ELISA, GC3pep coated, antibody 100 nM;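 also: detection with an HRP-conjugated secondary antibody and TMB substrate, color reaction stopped with HCl before absorbance reading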
Method: as §1

polypeptide GC3pep [5] = molecular target: T1, polypeptide GC3pep; assay: ELISA, GC3pep coated, antibody 0.01 nM;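 also: bound antibody detected with an HRP-conjugated secondary antibody and TMB substrate, color reaction stopped with HCl before reading absorbance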
polypeptide GC3pep [6] = molecular target: T1, polypeptide GC3pep; assay: ELISA, GC3pep coated, antibody 0.001 nM
polypeptide GC3pep [7] = molecular target: T1, polypeptide GC3pep; assay: ELISA, GC3pep coated, antibody 0.0001 nM

B3: F1.78.24 (antibody, human IgG1, kappa, V domains shown)
VH: QVQLQQSGAELVKPGASVKMSCKASGYTFTTYPIEWMKQNHGKSLEWIGNFHPYNDDTNYNVKFKGKATLTVEKSSSTVYLELSRLTSDDSALYYCARRREYYGSFDVWGTGTTVTVSS
VL: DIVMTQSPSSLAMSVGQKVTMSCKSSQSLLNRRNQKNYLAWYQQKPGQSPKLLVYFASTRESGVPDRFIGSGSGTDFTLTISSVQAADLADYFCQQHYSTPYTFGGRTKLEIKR
notes: human-murine chimeric antibody
OD450 nm (polypeptide GC3pep [1]): 0.05 OD450 nm
OD450 nm (polypeptide GC3pep [2]): 0.05 OD450 nm
OD450 nm (polypeptide GC3pep [3]): 0.05 OD450 nm
OD450 nm (polypeptide GC3pep [4]): 0.06 OD450 nm
OD450 nm (polypeptide GC3pep [5]): 0.05 OD450 nm
OD450 nm (polypeptide GC3pep [6]): 0.05 OD450 nm
OD450 nm (polypeptide GC3pep [7]): 0.05 OD450 nm

B4: F1.120.16 (antibody, human IgG1, kappa, V domains shown)
VH: EFQLQQSGPELVKPGASVKISCKASGYSFTDYNMNWVKQSNGKSLEWIGLIHPKFSVTSYNRKFKGKATLTVDQSSSTAYMQLNSLTSEDSAVYYCARWAGDYFDYWGQGTTLTVSS
VL: DIVLTQSPATLSVTPGDSVSLSCRASQSISNNLHWYQQKSHESPRLLIKYASQSISGIPSRFSGSGSGTDFTLTINSVETEDFGMYFCQQSNSWPQTFGGGTKLEIKR
notes: as for B3
OD450 nm (polypeptide GC3pep [1]): 0.04 OD450 nm
OD450 nm (polypeptide GC3pep [2]): 0.06 OD450 nm
OD450 nm (polypeptide GC3pep [3]): 0.04 OD450 nm
OD450 nm (polypeptide GC3pep [4]): 0.08 OD450 nm
OD450 nm (polypeptide GC3pep [5]): 0.04 OD450 nm
OD450 nm (polypeptide GC3pep [6]): 0.04 OD450 nm
OD450 nm (polypeptide GC3pep [7]): 0.05 OD450 nm

B5: F1.73.9 (antibody, human IgG1, kappa, V domains shown)
VH: QVQLKQSGAELVRPGASVKLSCKASGYTFTDYYINWVKQRPGQGLEWIARIYPGSGNTYYNEKFKGKATLTAEKSSSTAYMQFSSLTSEDSAVYFCACSTYYTMDYWGQGTSVTVSS
VL: QIVLTQSPAIMSASLGERVTMTCTASSGVSSSYLHWYQQKPGSSPKLWIYTTSNLASGVPARFSGSGSGTSYSLTISSMEAEDAATYYCHQYHRSPYTFGGGTKLEIKR
notes: as for B3
OD450 nm (polypeptide GC3pep [1]): 0.05 OD450 nm
OD450 nm (polypeptide GC3pep [2]): 0.05 OD450 nm
OD450 nm (polypeptide GC3pep [3]): 0.05 OD450 nm
OD450 nm (polypeptide GC3pep [4]): 0.09 OD450 nm
OD450 nm (polypeptide GC3pep [5]): 0.05 OD450 nm
OD450 nm (polypeptide GC3pep [6]): 0.05 OD450 nm
OD450 nm (polypeptide GC3pep [7]): 0.04 OD450 nm

B8: F1.92.17 (antibody, human IgG1, kappa, V domains shown)
VH: EVQLQQSGPELVKPGASVKMSCKASGYTFTDYNMHWVRQSHGKSLEWIGYINPNNGDTIYNQNFKGKATLTVNKSSSTAYMELRSLTSEDSAVYYCSRTITYYYSMDYWGPGTSVTVSS
VL: QIVLTQSPALMSASPGEKVTMTCSASSSVSYMYWYQQKPRSSPKPWIYLTSNLASGVPARFSGSGSGTSYSLTISSMEAEDAATYYCQQWSSNPLTFGAGTKLELKR
notes: as for B3
OD450 nm (polypeptide GC3pep [1]): 0.05 OD450 nm
OD450 nm (polypeptide GC3pep [2]): 0.06 OD450 nm
OD450 nm (polypeptide GC3pep [3]): 0.06 OD450 nm
OD450 nm (polypeptide GC3pep [4]): 0.1 OD450 nm
OD450 nm (polypeptide GC3pep [5]): 0.05 OD450 nm
OD450 nm (polypeptide GC3pep [6]): 0.05 OD450 nm
OD450 nm (polypeptide GC3pep [7]): 0.05 OD450 nm

Other lines, results leading:

OD450 nm (polypeptide GC3pep [1]): 2.29 OD450 nm
OD450 nm (polypeptide GC3pep [2]): 2.42 OD450 nm
OD450 nm (polypeptide GC3pep [3]): 1.13 OD450 nm
OD450 nm (polypeptide GC3pep [4]): 2.73 OD450 nm
OD450 nm (polypeptide GC3pep [5]): 0.2 OD450 nm
OD450 nm (polypeptide GC3pep [6]): 0.06 OD450 nm
OD450 nm (polypeptide GC3pep [7]): 0.05 OD450 nm
B1: F2.154.1 (antibody, human IgG1, kappa, V domains shown)
VH: QVQLQQSGAELVRPGASVKLSCKASGYRFTDYEMHWVKQTPVHGLEWIGTIDPETGNTAYTQKFMDKATLTADKSSSTAYMELRSLTSEDSAVYYCTRGYSFTYWGQGTLATVSA
VL: DVLMTQTPLSLPVSLGDQASISCRSSQNIVHSNGNTYLQWYLQKPGQSPKLLIFKVSNRFSGVPDRFSGSGSGTDFTLKISRVEAEDLGVYYCFQGSHVPFTFGTGTKLEIKR
notes: as for B3

OD450 nm (polypeptide GC3pep [1]): 2.36 OD450 nm
OD450 nm (polypeptide GC3pep [2]): 2.38 OD450 nm
OD450 nm (polypeptide GC3pep [3]): 1.25 OD450 nm
OD450 nm (polypeptide GC3pep [4]): 2.73 OD450 nm
OD450 nm (polypeptide GC3pep [5]): 0.24 OD450 nm
OD450 nm (polypeptide GC3pep [6]): 0.06 OD450 nm
OD450 nm (polypeptide GC3pep [7]): 0.05 OD450 nm
B2: F2.169.2 (antibody, human IgG1, kappa, V domains shown)
VH: EVQLVETGGGLVQPKGSLKLSCAASGFSFNTNAMNWVRQAPGKGLEWVARIRSKSNNYATYYADSVKDRFTISRDDSQSMLYLQMNNLKTEDTAMYYCVRDGYYVLFAYWGQGTLVTVSA
VL: B1 VL with S25F, N28S, H31N, Q39E, Y41F, F54Y
notes: as for B3

OD450 nm (polypeptide GC3pep [1]): 0.04 OD450 nm
OD450 nm (polypeptide GC3pep [2]): 0.04 OD450 nm
OD450 nm (polypeptide GC3pep [3]): 0.04 OD450 nm
OD450 nm (polypeptide GC3pep [4]): 0.08 OD450 nm
OD450 nm (polypeptide GC3pep [5]): 0.04 OD450 nm
OD450 nm (polypeptide GC3pep [6]): 0.04 OD450 nm
OD450 nm (polypeptide GC3pep [7]): 0.05 OD450 nm
B6: F1.136.7 (antibody, human IgG1, kappa, V domains shown)
VH: EVQLQQSGPVMVKPGPSVKISCQTSGFTFTDYYIHWVKQSHGKSLEWIGLVFPYDGGTNYNQKFKDKATLTLDTSSSTAYMELNSLTSEDSAVYYCARAGGFSYALNYWGQGTSVTVSS
VL: DIQMTQSPSSLSASLGGKVTITCKASQDINNYIAWYQHKPGKGPRLLIHFTSTLQPGIPSRFSGSGSGRDYSFSISNLEPEDIATYYCLQYDNLLLTFGAGTKLELKR
notes: as for B3

OD450 nm (polypeptide GC3pep [1]): 0.04 OD450 nm
OD450 nm (polypeptide GC3pep [2]): 0.05 OD450 nm
OD450 nm (polypeptide GC3pep [3]): 0.05 OD450 nm
OD450 nm (polypeptide GC3pep [4]): 0.11 OD450 nm
OD450 nm (polypeptide GC3pep [5]): 0.04 OD450 nm
OD450 nm (polypeptide GC3pep [6]): 0.05 OD450 nm
OD450 nm (polypeptide GC3pep [7]): 0.06 OD450 nm
B7: F1.153.1 (antibody, human IgG1, kappa, V domains shown)
VH: QIQLVQSGPELKKPGETVKISCKASGYTFTTAGMQWVQKMPGKGFKWIGWINTHSGEPQYAEDFKGRFAFSLETSASTAYLQISNLKNEDTATYFCARSFYYHGSSFFYFDYWGQGTTLTVSS
VL: DIVMTQSQKFMSTTVGDRVSITCKASQNVGTAVAWYQQKPGQSPKLLIYSASNRYTGVPDRFTGSGSGADFTLTISNMQSEDLADYFCQQYSRYPLTFGAGTKLELKR
notes: as for B3
